B1: minF1; a variant is named by its letters at N, in order (parent)
chain: GAGACCGCAACTGAAAAGTTGTTANNNNAANGNNNGGTTGAATTTCTGCACGTAGAAGCAAAAGGC
B2: minF1; a variant is named by its letters at N, in order (parent)
chain: GAGACCGCAACTGAAAAGTTGTTNNNNAANNNNNGGNTNAATTTCTGCACGTAGAAGCAAAAGGC

Variants of: B1
Assay: fraction ligated after 30 min (ligated reads / total reads); higher = more ligase activity
Details: with F1*subA RNA substrate (template-directed ligation), 42 °C
How it was run: (§1)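 Using barcoded primers for reverse transcription and a MiSeq for sequencing, gel-separated ligated and unligated RNAs of minimized ligase ribozyme variants were read, with core-base filtering at quality ≥30. Fraction ligated per variant was defined as ligated reads over total reads.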

| Variant | fraction ligated |
| --- | --- |
| GAGACCGCAACTGAAAAGTTGTATAGAAATGGATGGGTTGAATTTCTGCACGTAGAAGCAAAAGGC | 0.00339 |
| GAGACCGCAACTGAAAAGTTGTTTCGAAATGGATGGGTTGAATTTCTGCACGTAGAAGCAAAAGGC | 0.0664 |
| GAGACCGCAACTGAAAAGTTGTACAGAAATGGATGGGTTGAATTTCTGCACGTAGAAGCAAAAGGC | 0.00911 |
| GAGACCGCAACTGAAAAGTTGTTATGAAATGGATGGGTTGAATTTCTGCACGTAGAAGCAAAAGGC | 0.054 |
| GAGACCGCAACTGAAAAGTTGTTATCGAAATGGATGGTTGAATTTCTGCACGTAGAAGCAAAAGGC | 0.0366 |
| GAGACCGCAACTGAAAAGTTGTTCAGAAATGGATGGGTTGAATTTCTGCACGTAGAAGCAAAAGGC | 0.0111 |
| GAGACCGCAACTGAAAAGTTGTTTAGAAATGGATGGGTTGAATTTCTGCACGTAGAAGCAAAAGGC | 0.00936 |
| GAGACCGCAACTGAAAAGTTGTTATCGAAATGGTGGGTTGAATTTCTGCACGTAGAAGCAAAAGGC | 0.0076 |
| GAGACCGCAACTGAAAAGTTGTTATCGAAATGGATGGGTTGATTTCTGCACGTAGAAGCAAAAGGC | 0.576 |
| GAGACCGCAACTGAAAAGTTGTATCGAAATGGATGGGTTGAATTTCTGCACGTAGAAGCAAAAGGC | 0.0868 |
| GAGACCGCAACTGAAAAGTTGTTATCGAAATGGATGGGTTAATTTCTGCACGTAGAAGCAAAAGGC | 0.0543 |
| GAGACCGCAACTGAAAAGTTGTTACGAAATGGATGGGTTGAATTTCTGCACGTAGAAGCAAAAGGC | 0.0292 |
| GAGACCGCAACTGAAAAGTTGTTAAGAAATGGATGGGTTGAATTTCTGCACGTAGAAGCAAAAGGC | 0.0065 |

Variants of: B2
Assay: as above
Details: with F1*subA RNA substrate (template-directed ligation), 42 °C
How it was run: as §1

| Variant | fraction ligated |
| --- | --- |
| GAGACCGCAACTGAAAAGTTGTTACAAAATGATGGGTTGAATTTCTGCACGTAGAAGCAAAAGGC | 0.00381 |
| GAGACCGCAACTGAAAAGTTGTTAAGAAAGGATGGGTTGAATTTCTGCACGTAGAAGCAAAAGGC | 0.00256 |
| GAGACCGCAACTGAAAAGTTGTTAAGAAATGGATGGTTGAATTTCTGCACGTAGAAGCAAAAGGC | 0.00494 |
| GAGACCGCAACTGAAAAGTTGTACAAAATGGATGGGTTGAATTTCTGCACGTAGAAGCAAAAGGC | 0.00472 |
| GAGACCGCAACTGAAAAGTTGTTCAGAAATGGATGGGTTAATTTCTGCACGTAGAAGCAAAAGGC | 0.00272 |
| GAGACCGCAACTGAAAAGTTGTTTAGAAATGGATGGGTTGATTTCTGCACGTAGAAGCAAAAGGC | 0.00383 |
| GAGACCGCAACTGAAAAGTTGTTTCAAAATGGATGGGTTGATTTCTGCACGTAGAAGCAAAAGGC | 0.0177 |
| GAGACCGCAACTGAAAAGTTGTTTAGAAAGGATGGGTTGAATTTCTGCACGTAGAAGCAAAAGGC | 0.00132 |
| GAGACCGCAACTGAAAAGTTGTTACAAAATGGATGGGTTGATTTCTGCACGTAGAAGCAAAAGGC | 0.0105 |
| GAGACCGCAACTGAAAAGTTGTTTAGAAATGGATGGGTTAATTTCTGCACGTAGAAGCAAAAGGC | 0.00222 |
| GAGACCGCAACTGAAAAGTTGTTAAGAAATGATGGGTTGAATTTCTGCACGTAGAAGCAAAAGGC | 0.0055 |
| GAGACCGCAACTGAAAAGTTGTTAAGAAATGGATGGGTTGATTTCTGCACGTAGAAGCAAAAGGC | 0.00604 |
| GAGACCGCAACTGAAAAGTTGTTACAAAATGGATGGGTTAATTTCTGCACGTAGAAGCAAAAGGC | 0.00325 |
| GAGACCGCAACTGAAAAGTTGTTCAAAATGGATGGGTTGAATTTCTGCACGTAGAAGCAAAAGGC | 0.00429 |
| GAGACCGCAACTGAAAAGTTGTTTAAAATGGATGGGTTGAATTTCTGCACGTAGAAGCAAAAGGC | 0.00359 |
| GAGACCGCAACTGAAAAGTTGTTAAGAAATGGTGGGTTGAATTTCTGCACGTAGAAGCAAAAGGC | 0.00306 |
| GAGACCGCAACTGAAAAGTTGTACAGAAAGGATGGGTTGAATTTCTGCACGTAGAAGCAAAAGGC | 0.00547 |
| GAGACCGCAACTGAAAAGTTGTTAAGAATGGATGGGTTGAATTTCTGCACGTAGAAGCAAAAGGC | 0.00554 |
| GAGACCGCAACTGAAAAGTTGTACAGAATGGATGGGTTGAATTTCTGCACGTAGAAGCAAAAGGC | 0.00891 |
| GAGACCGCAACTGAAAAGTTGTTTAGAATGGATGGGTTGAATTTCTGCACGTAGAAGCAAAAGGC | 0.0101 |
| GAGACCGCAACTGAAAAGTTGTTAAGAAATGGATGGGTTAATTTCTGCACGTAGAAGCAAAAGGC | 0.0029 |
| GAGACCGCAACTGAAAAGTTGTTTCAAATGGATGGGTTGAATTTCTGCACGTAGAAGCAAAAGGC | 0.00599 |
| GAGACCGCAACTGAAAAGTTGTTCAGAAATGGATGGGTTGATTTCTGCACGTAGAAGCAAAAGGC | 0.0159 |
| GAGACCGCAACTGAAAAGTTGTTTCAGAAAGATGGGTTGAATTTCTGCACGTAGAAGCAAAAGGC | 0.00161 |
| GAGACCGCAACTGAAAAGTTGTATCAAAATGGATGGGTTGATTTCTGCACGTAGAAGCAAAAGGC | 0.00963 |
| GAGACCGCAACTGAAAAGTTGTATAGAATGGATGGGTTGAATTTCTGCACGTAGAAGCAAAAGGC | 0.00989 |
| GAGACCGCAACTGAAAAGTTGTTTCAAAAGGATGGGTTGAATTTCTGCACGTAGAAGCAAAAGGC | 0.00272 |
| GAGACCGCAACTGAAAAGTTGTTAAAAATGGATGGGTTGAATTTCTGCACGTAGAAGCAAAAGGC | 0.00415 |
